The target of this test is bromodomain of CREB (cyclic-AMP response element binding) binding protein (UniProt Q92793-1). Briefly: AlphaScreen or HTRF. Particulars: both partners purified. Background: In Alpha technology, singlet oxygen from a donor bead excites a nearby acceptor bead.
bromodomain of CREB (cyclic-AMP response element binding) binding protein, sequence (Q92793 1081-1197): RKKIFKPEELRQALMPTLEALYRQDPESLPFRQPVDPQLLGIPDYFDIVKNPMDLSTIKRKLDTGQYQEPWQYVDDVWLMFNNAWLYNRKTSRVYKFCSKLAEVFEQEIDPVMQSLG

B1: H3K56(Ac) peptide (peptide)
peptide: ALREIRRYQKSTELLIRKLK
modifications: K(Ac) at peptide position 10 (H3K56); C-terminal K(Biotin)
For the molecule B1, the binding result is reported as “binds”.

The values above are taken from publication PMC3906316 (Journal of Medicinal Chemistry, 2013).
